# Patent US20190177417A1 (BIOATLA, published 2019)
# Like-named read-outs stand apart in the source and are kept apart here.
# T1: Axl protein (human, UniProt P30530 26-451)
# T1 construct: extracellular domain; also called human Axl; hAxl
# T1 sequence (looked up): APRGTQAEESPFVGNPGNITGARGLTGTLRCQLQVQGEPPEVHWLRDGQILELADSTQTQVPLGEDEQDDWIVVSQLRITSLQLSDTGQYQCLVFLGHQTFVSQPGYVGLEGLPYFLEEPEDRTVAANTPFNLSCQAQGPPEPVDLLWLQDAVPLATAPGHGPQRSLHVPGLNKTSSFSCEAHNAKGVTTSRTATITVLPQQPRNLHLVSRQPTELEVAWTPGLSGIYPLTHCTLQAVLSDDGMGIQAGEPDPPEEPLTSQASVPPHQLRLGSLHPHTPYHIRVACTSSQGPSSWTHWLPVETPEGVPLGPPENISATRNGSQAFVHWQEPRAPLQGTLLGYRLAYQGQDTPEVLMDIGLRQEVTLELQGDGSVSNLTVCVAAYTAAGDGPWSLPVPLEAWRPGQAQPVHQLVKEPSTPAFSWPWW
# Assays:
# Axl protein [1] = target: T1, Axl protein; assay: ELISA, 1:3 dilution, pH 6.0 over pH 7.4
# Axl protein [2] = target: T1, Axl protein; assay: ELISA, 1:9 dilution, pH 6.0 over pH 7.4
# Axl protein [3] = target: T1, Axl protein; assay: ELISA, 1:3 dilution, pH 6.0 over pH 7.4; remark: listed apart in the source
# Axl protein [4] = target: T1, Axl protein; assay: ELISA, 1:9 dilution, pH 6.0 over pH 7.4; remark: listed apart in the source
Binder,"Affinity ELISA CPE mutant ratio (1:3, pH 6.0/7.4) (Axl protein [1]) [ratio]","Affinity ELISA CPE mutant ratio (1:9, pH 6.0/7.4) (Axl protein [2]) [ratio]","Affinity ELISA CPE mutant ratio (1:3, pH 6.0/7.4) (Axl protein [3]) [ratio]","Affinity ELISA CPE mutant ratio (1:9, pH 6.0/7.4) (Axl protein [4]) [ratio]"
"LC-V029D (antibody, V domains shown) VH: EVQLVQSGAEVKKPGATVKISCKVSGYSFTGHTMNWIRQPPGKGLEWIGLIKPSNGGTSYNQKFKGRVTISADKSISTAYLQWSSLKASDTAMYYCAHGHYESYFAMDYWGQGTLVTVSS VL: DIQMTQSPSSLSASVGDRVTITCKASQDDSSAVAWYQQKPGQAPRLLIYWASTRHTGVPSRFSGSGSGTEFTLTISSLQPDDFATYYCQEHFSTPLTFGQGTKVEIK",2.88,2.68,–,–
"HC-W110R (antibody, V domains shown) VH: EVQLVQSGAEVKKPGATVKISCKVSGYSFTGHTMNWIRQPPGKGLEWIGLIKPSNGGTSYNQKFKGRVTISADKSISTAYLQWSSLKASDTAMYYCAHGHYESYFAMDYRGQGTLVTVSS VL: DIQMTQSPSSLSASVGDRVTITCKASQDVSSAVAWYQQKPGQAPRLLIYWASTRHTGVPSRFSGSGSGTEFTLTISSLQPDDFATYYCQEHFSTPLTFGQGTKVEIK",–,–,5.99,1.06
"HC-W110L (antibody, V domains shown) VH: EVQLVQSGAEVKKPGATVKISCKVSGYSFTGHTMNWIRQPPGKGLEWIGLIKPSNGGTSYNQKFKGRVTISADKSISTAYLQWSSLKASDTAMYYCAHGHYESYFAMDYLGQGTLVTVSS VL: DIQMTQSPSSLSASVGDRVTITCKASQDVSSAVAWYQQKPGQAPRLLIYWASTRHTGVPSRFSGSGSGTEFTLTISSLQPDDFATYYCQEHFSTPLTFGQGTKVEIK",–,–,8.22,0.924
"HC-G111H (antibody, V domains shown) VH: EVQLVQSGAEVKKPGATVKISCKVSGYSFTGHTMNWIRQPPGKGLEWIGLIKPSNGGTSYNQKFKGRVTISADKSISTAYLQWSSLKASDTAMYYCAHGHYESYFAMDYWHQGTLVTVSS VL: DIQMTQSPSSLSASVGDRVTITCKASQDVSSAVAWYQQKPGQAPRLLIYWASTRHTGVPSRFSGSGSGTEFTLTISSLQPDDFATYYCQEHFSTPLTFGQGTKVEIK",–,–,1.06,1.79
"HC-A106L (antibody, V domains shown) VH: EVQLVQSGAEVKKPGATVKISCKVSGYSFTGHTMNWIRQPPGKGLEWIGLIKPSNGGTSYNQKFKGRVTISADKSISTAYLQWSSLKASDTAMYYCAHGHYESYFLMDYWGQGTLVTVSS VL: DIQMTQSPSSLSASVGDRVTITCKASQDVSSAVAWYQQKPGQAPRLLIYWASTRHTGVPSRFSGSGSGTEFTLTISSLQPDDFATYYCQEHFSTPLTFGQGTKVEIK",–,–,21.5,1.61
"LC-H091T (antibody, V domains shown) VH: EVQLVQSGAEVKKPGATVKISCKVSGYSFTGHTMNWIRQPPGKGLEWIGLIKPSNGGTSYNQKFKGRVTISADKSISTAYLQWSSLKASDTAMYYCAHGHYESYFAMDYWGQGTLVTVSS VL: DIQMTQSPSSLSASVGDRVTITCKASQDVSSAVAWYQQKPGQAPRLLIYWASTRHTGVPSRFSGSGSGTEFTLTISSLQPDDFATYYCQETFSTPLTFGQGTKVEIK",3.78,3.78,–,–
"LC-H091S (antibody, V domains shown) VH: EVQLVQSGAEVKKPGATVKISCKVSGYSFTGHTMNWIRQPPGKGLEWIGLIKPSNGGTSYNQKFKGRVTISADKSISTAYLQWSSLKASDTAMYYCAHGHYESYFAMDYWGQGTLVTVSS VL: DIQMTQSPSSLSASVGDRVTITCKASQDVSSAVAWYQQKPGQAPRLLIYWASTRHTGVPSRFSGSGSGTEFTLTISSLQPDDFATYYCQESFSTPLTFGQGTKVEIK",1.76,1.34,–,–
"LC-V029N (antibody, V domains shown) VH: EVQLVQSGAEVKKPGATVKISCKVSGYSFTGHTMNWIRQPPGKGLEWIGLIKPSNGGTSYNQKFKGRVTISADKSISTAYLQWSSLKASDTAMYYCAHGHYESYFAMDYWGQGTLVTVSS VL: DIQMTQSPSSLSASVGDRVTITCKASQDNSSAVAWYQQKPGQAPRLLIYWASTRHTGVPSRFSGSGSGTEFTLTISSLQPDDFATYYCQEHFSTPLTFGQGTKVEIK",2.6,2.65,–,–
"HC-M107F (antibody, V domains shown) VH: EVQLVQSGAEVKKPGATVKISCKVSGYSFTGHTMNWIRQPPGKGLEWIGLIKPSNGGTSYNQKFKGRVTISADKSISTAYLQWSSLKASDTAMYYCAHGHYESYFAFDYWGQGTLVTVSS VL: DIQMTQSPSSLSASVGDRVTITCKASQDVSSAVAWYQQKPGQAPRLLIYWASTRHTGVPSRFSGSGSGTEFTLTISSLQPDDFATYYCQEHFSTPLTFGQGTKVEIK",–,–,20.6,1.09
"HC-A106Y (antibody, V domains shown) VH: EVQLVQSGAEVKKPGATVKISCKVSGYSFTGHTMNWIRQPPGKGLEWIGLIKPSNGGTSYNQKFKGRVTISADKSISTAYLQWSSLKASDTAMYYCAHGHYESYFYMDYWGQGTLVTVSS VL: DIQMTQSPSSLSASVGDRVTITCKASQDVSSAVAWYQQKPGQAPRLLIYWASTRHTGVPSRFSGSGSGTEFTLTISSLQPDDFATYYCQEHFSTPLTFGQGTKVEIK",–,–,3.29,3.06
"HC-W110A (antibody, V domains shown) VH: EVQLVQSGAEVKKPGATVKISCKVSGYSFTGHTMNWIRQPPGKGLEWIGLIKPSNGGTSYNQKFKGRVTISADKSISTAYLQWSSLKASDTAMYYCAHGHYESYFAMDYAGQGTLVTVSS VL: DIQMTQSPSSLSASVGDRVTITCKASQDVSSAVAWYQQKPGQAPRLLIYWASTRHTGVPSRFSGSGSGTEFTLTISSLQPDDFATYYCQEHFSTPLTFGQGTKVEIK",–,–,7.91,1.2
"LC-V029G (antibody, V domains shown) VH: EVQLVQSGAEVKKPGATVKISCKVSGYSFTGHTMNWIRQPPGKGLEWIGLIKPSNGGTSYNQKFKGRVTISADKSISTAYLQWSSLKASDTAMYYCAHGHYESYFAMDYWGQGTLVTVSS VL: DIQMTQSPSSLSASVGDRVTITCKASQDGSSAVAWYQQKPGQAPRLLIYWASTRHTGVPSRFSGSGSGTEFTLTISSLQPDDFATYYCQEHFSTPLTFGQGTKVEIK",1.94,1.8,–,–
"LC-H091V (antibody, V domains shown) VH: EVQLVQSGAEVKKPGATVKISCKVSGYSFTGHTMNWIRQPPGKGLEWIGLIKPSNGGTSYNQKFKGRVTISADKSISTAYLQWSSLKASDTAMYYCAHGHYESYFAMDYWGQGTLVTVSS VL: DIQMTQSPSSLSASVGDRVTITCKASQDVSSAVAWYQQKPGQAPRLLIYWASTRHTGVPSRFSGSGSGTEFTLTISSLQPDDFATYYCQEVFSTPLTFGQGTKVEIK",4.13,1.17,–,–
"HC-W110N (antibody, V domains shown) VH: EVQLVQSGAEVKKPGATVKISCKVSGYSFTGHTMNWIRQPPGKGLEWIGLIKPSNGGTSYNQKFKGRVTISADKSISTAYLQWSSLKASDTAMYYCAHGHYESYFAMDYNGQGTLVTVSS VL: DIQMTQSPSSLSASVGDRVTITCKASQDVSSAVAWYQQKPGQAPRLLIYWASTRHTGVPSRFSGSGSGTEFTLTISSLQPDDFATYYCQEHFSTPLTFGQGTKVEIK",–,–,4.3,0.8
"HC-W110D (antibody, V domains shown) VH: EVQLVQSGAEVKKPGATVKISCKVSGYSFTGHTMNWIRQPPGKGLEWIGLIKPSNGGTSYNQKFKGRVTISADKSISTAYLQWSSLKASDTAMYYCAHGHYESYFAMDYDGQGTLVTVSS VL: DIQMTQSPSSLSASVGDRVTITCKASQDVSSAVAWYQQKPGQAPRLLIYWASTRHTGVPSRFSGSGSGTEFTLTISSLQPDDFATYYCQEHFSTPLTFGQGTKVEIK",–,–,3.72,1.11
"HC-M107E (antibody, V domains shown) VH: EVQLVQSGAEVKKPGATVKISCKVSGYSFTGHTMNWIRQPPGKGLEWIGLIKPSNGGTSYNQKFKGRVTISADKSISTAYLQWSSLKASDTAMYYCAHGHYESYFAEDYWGQGTLVTVSS VL: DIQMTQSPSSLSASVGDRVTITCKASQDVSSAVAWYQQKPGQAPRLLIYWASTRHTGVPSRFSGSGSGTEFTLTISSLQPDDFATYYCQEHFSTPLTFGQGTKVEIK",–,–,2.16,1.36
"HC-W110P (antibody, V domains shown) VH: EVQLVQSGAEVKKPGATVKISCKVSGYSFTGHTMNWIRQPPGKGLEWIGLIKPSNGGTSYNQKFKGRVTISADKSISTAYLQWSSLKASDTAMYYCAHGHYESYFAMDYPGQGTLVTVSS VL: DIQMTQSPSSLSASVGDRVTITCKASQDVSSAVAWYQQKPGQAPRLLIYWASTRHTGVPSRFSGSGSGTEFTLTISSLQPDDFATYYCQEHFSTPLTFGQGTKVEIK",–,–,6.49,2.15
